One experiment has as its target HLA-DRB5_1 (Homo sapiens, UniProt P01903+Q30154). Format: cell-based. The following applies: for MCR surface expression: peptide covalently linked to beta chain, anti-HLA-DR APC antibody, FACS.
The target of the next experiment is HLA-DRB1_15 (Homo sapiens, UniProt P01903+P01911). Format: cell-based. As to conditions: for MCR surface expression: peptide covalently linked to beta chain, anti-HLA-DR APC antibody, FACS.
[1] abbreviates: FIG. 6, anti-CD3e or anti-HLA-DR PE antibodies, peptides containing the core epitope with different flanking regions.

We go through 3 substances from patent publication US20210132065A1, “MAMMALIAN MHC PEPTIDE DISPLAY AS AN EPITOPE SELECTION TOOL FOR VACCINE DESIGN” (ETH Zürich, priority 2018, published 2021).

Entries after “also recorded” stand apart in the source; their conditions may differ. Like-named read-outs stand apart in the source and are kept apart here. Where no end group is shown, it is not given here.

HLA-DRB1_15, sequence (P01911 30-227 limits assumed): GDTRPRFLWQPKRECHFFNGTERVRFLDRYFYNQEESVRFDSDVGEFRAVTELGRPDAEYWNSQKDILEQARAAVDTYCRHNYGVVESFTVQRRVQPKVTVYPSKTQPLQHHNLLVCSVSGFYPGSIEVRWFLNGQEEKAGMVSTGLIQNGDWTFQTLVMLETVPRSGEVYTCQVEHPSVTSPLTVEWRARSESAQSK
HLA-DRB1_15, sequence (P01903 26-216 limits assumed): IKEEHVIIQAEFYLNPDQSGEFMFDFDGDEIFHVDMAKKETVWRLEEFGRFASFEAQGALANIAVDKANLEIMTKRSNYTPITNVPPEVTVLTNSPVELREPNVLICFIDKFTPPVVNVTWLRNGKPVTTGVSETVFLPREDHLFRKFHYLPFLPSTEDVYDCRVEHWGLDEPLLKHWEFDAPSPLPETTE
HLA-DRB5_1, sequence (Q30154 30-227 limits assumed): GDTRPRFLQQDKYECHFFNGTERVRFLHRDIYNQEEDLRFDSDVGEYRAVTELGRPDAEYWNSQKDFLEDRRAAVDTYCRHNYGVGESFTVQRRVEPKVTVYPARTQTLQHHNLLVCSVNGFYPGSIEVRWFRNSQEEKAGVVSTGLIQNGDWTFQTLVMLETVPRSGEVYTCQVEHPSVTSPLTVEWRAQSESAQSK
HLA-DRB5_1, sequence (P01903 26-216 limits assumed): as the sequence (P01903 26-216 limits assumed) above

“MP162-72: influenza Matrix Protein 1-derived peptide comprising amino acids 62-72, covalently linked to the HLA beta chain of the MCR (FVFTLTVPSER; also: covalently linked to HLA beta chain of the MCR; UniProt P03485 62-72, looked up, fragment)”: the MCR surface expression entry with HLA-DRB5_1 is given as “efficient expression”; in the experiment with HLA-DRB1_15, “not the other HLAs tested”.
For “MP1103-120: influenza Matrix Protein 1 peptide, amino acids 103-120, covalently linked to the HLA beta chain of the MCR (LKREITFHGAKEISLSYS; also: covalently linked to HLA beta chain of the MCR; UniProt P03485 103-120, looked up, fragment)”, the MCR surface expression result was “barely detected; also recorded: not expressed at all” with HLA-DRB5_1, “not to bind at all” in the experiment with HLA-DRB5_1 (listed as MP1103-121), “detectable at very low levels; also recorded: very low MCR expression” with HLA-DRB1_15 and “low surface expression” in the experiment with HLA-DRB1_15 (listed as MP1103-121).
On to “MP1107-117: core epitope of influenza Matrix Protein 1, amino acids 107-117, tested within peptides with different flanking regions (ITFHGAKEISL; UniProt P03485 107-117, looked up, fragment)”, for which the “presentation (MCR surface expression)” value is given as “nor HLA-DRB5_1” with HLA-DRB5_1 (setting [1]) and “not by HLA-DRB1_15” in the experiment with HLA-DRB1_15 (setting [1]).
